From the supplement of paper PMC9112550, “Optimization of the antimicrobial peptide Bac7 by deep mutational scanning” (BMC Biology, 2022)

tested on: Escherichia coli TOP10; experiment: shrunken log2 fold change of peptide-encoding DNA abundance (4.5 h post-induction vs induction); higher = less antimicrobial activity (less host growth inhibition); conditions: time post-induction: 4.5 h; library: site-saturation at positions 5, 18, 19, 20
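Note: peptides expressed intracellularly from a pBAD plasmid library in pooled LB shake-flask culture, induced with 0.3% L-arabinose, DNA abundance read by NGS, three biological replicates, DESeq2 with apeglm shrinkage.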

Sequence | shrunken log2 fold change
RRIRMRPPRLPRPRPRPNYQPRP | -0.23
RRIRNRPPRLPRPRPRPFCCPRP | -0.257
RRIRSRPPRLPRPRPRPHVEPRP | 0.121
RRIRYRPPRLPRPRPRPCIGPRP | -0.644
RRIRWRPPRLPRPRPRPLMLPRP | -0.0143
RRIRRRPPRLPRPRPRPHYQPRP | -0.319
RRIRHRPPRLPRPRPRPFYRPRP | -0.0975
RRIRNRPPRLPRPRPRPGHEPRP | -0.265
RRIRVRPPRLPRPRPRPAIIPRP | -0.425
RRIRDRPPRLPRPRPRPCCKPRP | 0.0846
RRIRMRPPRLPRPRPRPTNYPRP | -0.212
RRIRCRPPRLPRPRPRPYTSPRP | -0.526
RRIRYRPPRLPRPRPRPTPKPRP | 0.167
RRIRMRPPRLPRPRPRPIQSPRP | 0.00351
RRIRQRPPRLPRPRPRPMGSPRP | -0.0869
RRIRSRPPRLPRPRPRPNRQPRP | -0.403
RRIRFRPPRLPRPRPRPSTAPRP | -0.0915
RRIRERPPRLPRPRPRPFQNPRP | 0.02
RRIRYRPPRLPRPRPRPYMFPRP | -0.651
RRIRARPPRLPRPRPRPQDTPRP | -0.179
RRIRYRPPRLPRPRPRPHFMPRP | -0.0918
RRIRKRPPRLPRPRPRPHPLPRP | 0.393

Sequence | shrunken log2 fold change
RRIRWRPPRLPRPRPRPNYEPRP | -0.222
RRIRSRPPRLPRPRPRPFIQPRP | -0.0991
RRIRTRPPRLPRPRPRPAVEPRP | -0.011
RRIRCRPPRLPRPRPRPTKDPRP | -0.489
RRIRKRPPRLPRPRPRPMICPRP | 0.0303
RRIRARPPRLPRPRPRPHVHPRP | -0.192
RRIRHRPPRLPRPRPRPNDHPRP | -0.499
RRIRNRPPRLPRPRPRPAAIPRP | 1.95
RRIRNRPPRLPRPRPRPVTPPRP | 0.0444
RRIRRRPPRLPRPRPRPTWMPRP | 0.174
RRIRVRPPRLPRPRPRPTVNPRP | -0.171
RRIRARPPRLPRPRPRPIAQPRP | 0.459
RRIRGRPPRLPRPRPRPYGTPRP | -0.0646
RRIRPRPPRLPRPRPRPSWMPRP | -0.288
RRIRFRPPRLPRPRPRPHKEPRP | -0.203
RRIRCRPPRLPRPRPRPTLLPRP | 0.0984
RRIRCRPPRLPRPRPRPVPNPRP | -0.26
RRIRPRPPRLPRPRPRPPVCPRP | 0.409
RRIRRRPPRLPRPRPRPRQCPRP | 0.596
RRIRQRPPRLPRPRPRPTFKPRP | -0.225
RRIRQRPPRLPRPRPRPFTVPRP | -0.0315
RRIRMRPPRLPRPRPRPKQGPRP | -0.000896

Sequence | shrunken log2 fold change
RRIRARPPRLPRPRPRPKCRPRP | 0.237
RRIRSRPPRLPRPRPRPFYWPRP | -0.0331
RRIRNRPPRLPRPRPRPRQNPRP | -0.118
RRIRIRPPRLPRPRPRPYWPPRP | -0.28
RRIRCRPPRLPRPRPRPCHPPRP | -0.348
RRIRMRPPRLPRPRPRPPPFPRP | 1.15
RRIRFRPPRLPRPRPRPVHWPRP | -0.105
RRIRPRPPRLPRPRPRPVCIPRP | -0.122
RRIRNRPPRLPRPRPRPVAKPRP | -0.107
RRIRMRPPRLPRPRPRPHMAPRP | 0.0168
RRIRTRPPRLPRPRPRPDMNPRP | -0.0432
RRIRYRPPRLPRPRPRPRMPPRP | -0.354
RRIRQRPPRLPRPRPRPCRPPRP | -0.184
RRIRYRPPRLPRPRPRPISLPRP | -0.333
RRIRHRPPRLPRPRPRPRLCPRP | 0.0797
RRIRYRPPRLPRPRPRPIHRPRP | -0.0635
RRIRMRPPRLPRPRPRPATPPRP | 1.24
RRIRIRPPRLPRPRPRPRPLPRP | 0.181
RRIRNRPPRLPRPRPRPHPRPRP | 0.0824
RRIRGRPPRLPRPRPRPPNFPRP | 0.0696
RRIRMRPPRLPRPRPRPQSTPRP | 0.21
RRIRNRPPRLPRPRPRPTGPPRP | 0.126

Sequence | shrunken log2 fold change
RRIRARPPRLPRPRPRPQKGPRP | 0.0244
RRIRARPPRLPRPRPRPLPRPRP | 0.768
RRIRGRPPRLPRPRPRPCTTPRP | 0.141
RRIRLRPPRLPRPRPRPHMAPRP | 0.0118
RRIRHRPPRLPRPRPRPASNPRP | -0.456
RRIRYRPPRLPRPRPRPDCSPRP | -0.315
RRIRFRPPRLPRPRPRPPHSPRP | 0.386
RRIRSRPPRLPRPRPRPDPSPRP | 0.0173
RRIRQRPPRLPRPRPRPRAVPRP | 2.78
RRIRRRPPRLPRPRPRPSKMPRP | 0.335
RRIRPRPPRLPRPRPRPRTLPRP | 0.0704
RRIRARPPRLPRPRPRPEYMPRP | -0.276
RRIRYRPPRLPRPRPRPKTYPRP | -0.781
RRIRCRPPRLPRPRPRPVIHPRP | -0.567
RRIRPRPPRLPRPRPRPITVPRP | -0.298
RRIRQRPPRLPRPRPRPKEKPRP | 0.00902
RRIRCRPPRLPRPRPRPKEEPRP | -0.0302
RRIRKRPPRLPRPRPRPMEEPRP | 0.371
RRIRERPPRLPRPRPRPQDAPRP | 0.0745
RRIRCRPPRLPRPRPRPALVPRP | 0.281
RRIRCRPPRLPRPRPRPEPKPRP | 0.104
RRIRRRPPRLPRPRPRPDICPRP | 0.0657

Sequence | shrunken log2 fold change
RRIRARPPRLPRPRPRPWRFPRP | 0.323
RRIRFRPPRLPRPRPRPSIMPRP | -0.65
RRIRLRPPRLPRPRPRPMSVPRP | -0.18
RRIRGRPPRLPRPRPRPQCMPRP | 0.403
RRIRMRPPRLPRPRPRPYKFPRP | 0.0435
RRIRARPPRLPRPRPRPQSWPRP | 0.322
RRIRVRPPRLPRPRPRPEIQPRP | 0.349
RRIRDRPPRLPRPRPRPIFGPRP | 0.0916
RRIRSRPPRLPRPRPRPVDTPRP | -0.103
RRIRNRPPRLPRPRPRPQMYPRP | -0.864
RRIRKRPPRLPRPRPRPYRAPRP | -0.117
RRIRHRPPRLPRPRPRPRFYPRP | -0.015
RRIRVRPPRLPRPRPRPPSHPRP | -0.0316
RRIRMRPPRLPRPRPRPRVMPRP | 0.832
RRIRHRPPRLPRPRPRPGNSPRP | 0.0912
RRIRPRPPRLPRPRPRPNPTPRP | 0.0721
RRIRCRPPRLPRPRPRPYMGPRP | -0.017
RRIRFRPPRLPRPRPRPPSEPRP | 0.28
RRIRYRPPRLPRPRPRPKDWPRP | -0.176
RRIRTRPPRLPRPRPRPHDTPRP | -0.213
RRIRMRPPRLPRPRPRPICSPRP | 0.241
